According to publication PMC11243334, “Synthesis and Evaluation of the First ^68Ga-Labeled C-Terminal Hydroxamate-Derived Gastrin-Releasing Peptide Receptor-Targeted Tracers for Cancer Imaging with Positron Emission Tomography” (Molecules, 2024):
Read-outs that look alike come from different tables or passages of the source.

Columns and labels:
physchem = settings: n-octanol/DPBS, pH 7.4
Procedure: LogD7.4 values of [^68Ga]Ga-LW02075, [^68Ga]Ga-LW02050, and [^68Ga]Ga-SB3 were measured via the shake flask method. An aliquot of the ^68Ga-labeled tracer (~1.85 MBq) was added to a 15 mL falcon tube containing 3 mL of n-octanol and 3 mL of DPBS (pH 7.4) followed by 1 min of vortex (n = 3). After that, the mixture was centrifuged at 5000 rpm for 10 min, and samples of the n-octanol (1 mL) and buffer (1 mL) layers were collected and counted on a Perkin Elmer (Waltham, MA, USA) Wizard2 2480 automatic gamma counter. The LogD7.4 values of [^68Ga]Ga-LW02075, [^68Ga]Ga-LW02050, and [^68Ga]Ga-SB3 were calculated following the equation: LogD7.4 = log10[(counts in the n-octanol phase)/(counts in the buffer phase)].

[1] = Ex vivo biodistribution in PC-3 tumor-bearing mice; settings: male, mouse, iv, total radioactivity, mean ± SD, n = 4; for tissue uptake at 1 h: NOD.Cg-Rag1^tm1Mom Il2rg^tm1Wjl/SzJ (NRG); for tissue to tissue ratio at 1 h: NOD.Cg-Rag1tm1Mom Il2rgtm1Wjl/SzJ (NRG)
Procedure: (§1) Biodistribution studies were conducted for ^68Ga-labeled SB3, LW02075 and LW02050 in PC-3 tumor-bearing mice (n = 4).
(§2) Imaging and biodistribution studies were performed on male NOD.Cg-Rag1^tm1Mom Il2rg^tm1Wjl/SzJ (NRG) mice following previously published procedures. The experiments were conducted following the guidelines established by the Canadian Council on Animal Care and approved by Animal Ethics Committee of the University of British Columbia. The mice were sedated (2.5% isoflurane in oxygen) and injected with 5 × 10^6 PC-3 cells (100 µL; 1:1 PBS/Matrigel) subcutaneously behind the left shoulder. The tumor-bearing mice were used for PET/CT imaging and biodistribution studies when the tumor grew to 5–8 mm in diameter.
(§3) For biodistribution studies, the mice were injected with the radiotracer (~2–4 MBq), as described above. Blocking of [^68Ga]Ga-LW02075 and [^68Ga]Ga-LW02050 was conducted by co-injection with 100 μg nonradioactive Ga-LW02075 and Ga-LW02050, respectively, through a lateral caudal tail vein under anaesthesia. At 1 h post injection, the mice were sedated and euthanized by CO2 inhalation. Blood was collected via cardiac puncture, and organs/tissues of interest were collected, weighed, and counted on a Perkin Elmer (Waltham, MA, USA) Wizard2 2480 automatic gamma counter.

PC-3 tumor-bearing mice = assay: Ex vivo biodistribution in PC-3 tumor-bearing mice; settings: 1 h post injection, 100 μg nonradioactive standard co-injected
Procedure: as §1, §2, §3

PC-3 tumor xenografts = assay: PET/CT imaging in mice bearing PC-3 tumor xenografts; format: in vivo; settings: 1 h post injection
Procedure: as §2
PET/CT imaging experiments were performed on a Siemens (Knoxville, TN, USA) Inveon micro PET/CT scanner. Each tumor-bearing mouse was injected with ~3–6 MBq of ^68Ga-labeled tracer through a lateral caudal tail vein under anaesthesia. At around 50 min post injection, a 10 min CT scan was obtained first for localization and attenuation correction after segmentation for reconstructing the PET image, followed by a 10 min static PET scan.

CC(C)C[C@H](NC(=O)[C@H](Cc1c[nH]cn1)NC(=O)CNC(=O)[C@@H](NC(=O)[C@H](C)NC(=O)[C@H](Cc1c[nH]c2ccccc12)NC(=O)[C@H](CCC(N)=O)NC(=O)[C@@H](Cc1ccccc1)NC(=O)CN1CCC(NC(=O)CN2CCN(CC(=O)O)CCN(CC(=O)O)CCN(CC(=O)O)CC2)CC1)C(C)C)C(=O)NO [[^68Ga]Ga-LW02050, [^68Ga]Ga-DOTA-Pip-D-Phe-Gln-Trp-Ala-Val-Gly-His-Leu-NHOH, metal not drawn]
logD (physchem): -2.3 ± 0.14
tissue uptake at 1 h ([1]; PC-3 tumor, 1 h blocked: co-injected with 100 µg nonradioactive Ga-complexed standard, read-out: PC-3 tumor uptake, blocked): 0.42 ± 0.08 %ID/g
tissue uptake at 1 h ([1]; PC-3 tumor, 1 h post injection, read-out: PC-3 tumor uptake): 5.38 ± 1 %ID/g
tissue uptake at 1 h ([1]; adrenal glands, 1 h blocked: co-injected with 100 µg nonradioactive Ga-complexed standard, read-out: Adrenal glands uptake, blocked): 0.05 ± 0.05 %ID/g
tissue uptake at 1 h ([1]; adrenal glands, 1 h post injection, read-out: Adrenal glands uptake): 0.43 ± 0.15 %ID/g
tissue uptake at 1 h ([1]; blood, 1 h blocked: co-injected with 100 µg nonradioactive Ga-complexed standard, read-out: Blood uptake, blocked): 0.34 ± 0.06 %ID/g
tissue uptake at 1 h ([1]; blood, 1 h post injection, read-out: Blood uptake): 0.57 ± 0.11 %ID/g
tissue uptake at 1 h ([1]; bone, 1 h blocked: co-injected with 100 µg nonradioactive Ga-complexed standard, read-out: Bone uptake, blocked): 0.03 ± 0.03 %ID/g
tissue uptake at 1 h ([1]; bone, 1 h post injection, read-out: Bone uptake): 0.14 ± 0.06 %ID/g
tissue uptake at 1 h ([1]; brain, 1 h blocked: co-injected with 100 µg nonradioactive Ga-complexed standard, read-out: Brain uptake, blocked): 0.01 %ID/g
tissue uptake at 1 h ([1]; brain, 1 h post injection, read-out: Brain uptake): 0.03 ± 0.01 %ID/g
tissue uptake at 1 h ([1]; fat, 1 h blocked: co-injected with 100 µg nonradioactive Ga-complexed standard, read-out: Fat uptake, blocked): 0.04 ± 0.01 %ID/g
tissue uptake at 1 h ([1]; fat, 1 h post injection, read-out: Fat uptake): 0.05 ± 0.01 %ID/g
tissue uptake at 1 h ([1]; heart, 1 h blocked: co-injected with 100 µg nonradioactive Ga-complexed standard, read-out: Heart uptake, blocked): 0.1 ± 0.02 %ID/g
tissue uptake at 1 h ([1]; heart, 1 h post injection, read-out: Heart uptake): 0.19 ± 0.03 %ID/g
tissue uptake at 1 h ([1]; kidneys, 1 h blocked: co-injected with 100 µg nonradioactive Ga-complexed standard, read-out: Kidneys uptake, blocked): 1.95 ± 0.44 %ID/g
tissue uptake at 1 h ([1]; kidneys, 1 h post injection, read-out: Kidneys uptake): 2.88 ± 0.68 %ID/g
tissue uptake at 1 h ([1]; large intestine, 1 h blocked: co-injected with 100 µg nonradioactive Ga-complexed standard, read-out: Large intestine uptake, blocked): 0.19 ± 0.17 %ID/g
tissue uptake at 1 h ([1]; large intestine, 1 h post injection, read-out: Large intestine uptake): 0.34 ± 0.15 %ID/g
tissue uptake at 1 h ([1]; liver, 1 h blocked: co-injected with 100 µg nonradioactive Ga-complexed standard, read-out: Liver uptake, blocked): 0.29 ± 0.2 %ID/g
tissue uptake at 1 h ([1]; liver, 1 h post injection, read-out: Liver uptake): 0.44 ± 0.05 %ID/g
tissue uptake at 1 h ([1]; lungs, 1 h blocked: co-injected with 100 µg nonradioactive Ga-complexed standard, read-out: Lungs uptake, blocked): 0.33 ± 0.09 %ID/g
tissue uptake at 1 h ([1]; lungs, 1 h post injection, read-out: Lungs uptake): 0.55 ± 0.06 %ID/g
tissue uptake at 1 h ([1]; muscle, 1 h blocked: co-injected with 100 µg nonradioactive Ga-complexed standard, read-out: Muscle uptake, blocked): 0.06 ± 0.02 %ID/g
tissue uptake at 1 h ([1]; muscle, 1 h post injection, read-out: Muscle uptake): 0.13 ± 0.02 %ID/g
tissue uptake at 1 h ([1]; pancreas, 1 h blocked: co-injected with 100 µg nonradioactive Ga-complexed standard, read-out: Pancreas uptake, blocked): 0.1 ± 0.03 %ID/g
tissue uptake at 1 h ([1]; pancreas, 1 h post injection, read-out: Pancreas uptake): 0.53 ± 0.11 %ID/g
tissue uptake at 1 h ([1]; small intestine, 1 h blocked: co-injected with 100 µg nonradioactive Ga-complexed standard, read-out: Small intestine uptake, blocked): 0.26 ± 0.09 %ID/g
tissue uptake at 1 h ([1]; small intestine, 1 h post injection, read-out: Small intestine uptake): 0.43 ± 0.04 %ID/g
tissue uptake at 1 h ([1]; spleen, 1 h blocked: co-injected with 100 µg nonradioactive Ga-complexed standard, read-out: Spleen uptake, blocked): 0.12 ± 0.02 %ID/g
tissue uptake at 1 h ([1]; spleen, 1 h post injection, read-out: Spleen uptake): 0.25 ± 0.04 %ID/g
tissue uptake at 1 h ([1]; stomach, 1 h blocked: co-injected with 100 µg nonradioactive Ga-complexed standard, read-out: Stomach uptake, blocked): 0.04 ± 0.02 %ID/g
tissue uptake at 1 h ([1]; stomach, 1 h post injection, read-out: Stomach uptake): 0.34 ± 0.14 %ID/g
tissue uptake at 1 h ([1]; testes, 1 h blocked: co-injected with 100 µg nonradioactive Ga-complexed standard, read-out: Testes uptake, blocked): 0.13 ± 0.05 %ID/g
tissue uptake at 1 h ([1]; testes, 1 h post injection, read-out: Testes uptake): 0.17 ± 0.05 %ID/g
tissue to tissue ratio at 1 h ([1]; tumor and bone, 1 h blocked: co-injected with 100 µg nonradioactive Ga-complexed standard, read-out: Tumor/bone uptake ratio, blocked): 27.1 ± 18.1
tissue to tissue ratio at 1 h ([1]; tumor and bone, 1 h post injection, read-out: Tumor/bone uptake ratio): 43.6 ± 22.6
tissue to tissue ratio at 1 h ([1]; tumor and kidney, 1 h blocked: co-injected with 100 µg nonradioactive Ga-complexed standard, read-out: Tumor/kidney uptake ratio, blocked): 0.22 ± 0.05
tissue to tissue ratio at 1 h ([1]; tumor and kidney, 1 h post injection, read-out: Tumor/kidney uptake ratio): 1.92 ± 0.41
tissue to tissue ratio at 1 h ([1]; tumor and muscle, 1 h blocked: co-injected with 100 µg nonradioactive Ga-complexed standard, read-out: Tumor/muscle uptake ratio, blocked): 8.28 ± 2.7
tissue to tissue ratio at 1 h ([1]; tumor and muscle, 1 h post injection, read-out: Tumor/muscle uptake ratio): 44.4 ± 14.1
tissue to tissue ratio at 1 h ([1]; tumor and pancreas, 1 h blocked: co-injected with 100 µg nonradioactive Ga-complexed standard, read-out: Tumor/pancreas uptake ratio, blocked): 4.3 ± 0.83
tissue to tissue ratio at 1 h ([1]; tumor and pancreas, 1 h post injection, read-out: Tumor/pancreas uptake ratio): 10.7 ± 4.17
tissue to tissue ratio at 1 h ([1]; tumor and whole blood, 1 h blocked: co-injected with 100 µg nonradioactive Ga-complexed standard, read-out: Tumor/blood uptake ratio, blocked): 1.23 ± 0.14
tissue to tissue ratio at 1 h ([1]; tumor and whole blood, 1 h post injection, read-out: Tumor/blood uptake ratio): 9.68 ± 2.84
Reduction of average pancreas uptake by co-injection of nonradioactive standard (PC-3 tumor-bearing mice): 81%
Reduction of average uptake in PC-3 tumor xenografts by co-injection of nonradioactive standard (PC-3 tumor-bearing mice): 92%
Uptake in PC-3 tumor xenograft in PET image with blocking (PC-3 tumor xenografts; co-injection with 100 μg nonradioactive standard): close to the background level
Excretion pathway in PET images (PC-3 tumor xenografts; mice): excreted primarily through the renal pathway
Pancreas in PET images (PC-3 tumor xenografts; mice): nearly invisible
Visualization of PC-3 tumor xenografts in PET images (PC-3 tumor xenografts; ~3–6 MBq i.v., mice): clearly visualized
